From patent US20190225694A1 (ZAKLADY FARMACEUTYCZNE POLPHARMA, published 2019)

Tests used:
α4β7 integrin = α4β7 integrin (UniProt P13612 34-970; P26010 20-723); experiment: competitive ELISA, coated α4β7 integrin, Fc-tagged MadCAM-1 as competitor, bound antibody detected with anti-human IgG-POD, 4PL fit
Method: Constant amount of the coated α4β7 integrin is incubated with serial dilutions of natalizumab in the presence of Fc-tagged MadCAM-1 receptor. natalizumab and MadCAM-1 receptor now compete for binding to solid-phase associated α4β7 integrin. The higher the natalizumab concentration the more MadCAM-1 is inhibited from binding to α4β7 integrin. The lowest signal result is observed when no natalizumab is present. Bound natalizumab is subsequently detected with a POD-conjugated anti-human IgG antibody and a TMB-substrate reaction at the end of the assay.
(§1) Data are analyzed with 4PL fitting model. Final result is expressed as a Relative Potency (REP) of tested sample in relation to reference standard. The method variability was determined at the level of 8% coefficient variation (CV) of intermediate precision within the qualification exercise. Additionally accuracy, linearity and specificity were tested.

HIS-tagged α4β1 integrin = HIS-tagged α4β1 integrin (UniProt P13612 34-970; P05556 21-728, limits assumed); experiment: competitive ELISA, coated VCAM-1 as competitor, HIS-tagged α4β1 integrin in solution, 4PL fit
Method: Constant amount of the coated VCAM-1 protein is incubated with serial dilutions of natalizumab in the presence of HIS-tagged α4β1 integrin. Solid-phase associated VCAM-1 and soluble natalizumab now compete for binding to α4β1 integrin. The higher the natalizumab concentration the more α4β1 Integrin is inhibited from binding to VCAM-1. The highest signal result is observed when no natalizumab is present. Bound HIS-tagged α4β1 integrin is subsequently detected with a biotinylated anti-HIS-tag antibody, POD-conjugated Streptavidin and a TMB-substrate reaction at the end of the assay.
as §1, with “7%” for “8%”

[1] = biological target: T1, integrin α4β1 (coated, direct ELISA) (UniProt P13612 34-970; P05556 21-728, limits assumed); experiment: direct ELISA, coated integrin α4β1, anti-human IgG-HRP detection, 4PL fit
T1 construct: Coated on the plate in the direct ELISA; also called α4β1 integrin; VLA-4
Method: The principle of this method is to incubate a coated constant amount of integrin α4β1 with serially diluted natalizumab samples. The amount of bound natalizumab is subsequently determined by a mouse, monoclonal anti-human IgG antibody, which is conjugated to horseradish peroxidase (HRP). HRP converts the chromogenic substrate TMB (3,3′,5,5′-tetramethylbenzidine) into a colored dye. The color reaction is measured spectrophotometrically at wavelength 450 nm.
Data are analyzed applying 4 Parameter Logistic nonlinear regression model (4PL), which is commonly used for curve-fitting analysis in bioassays or immunoassays such as ELISAs or dose-response curves. Final result is expressed as a Relative Potency (REP) of tested sample in relation to interim reference standard established at Polpharma site. The method variability was determined at the level of 7% coefficient variation (CV) of intermediate precision within the qualification exercise.

| Relative Potency (REP), average (α4β7 integrin) | Relative Potency (REP), max (α4β7 integrin) | Relative Potency (REP), min (α4β7 integrin) | Relative Potency (REP), average (HIS-tagged α4β1 integrin) | Relative Potency (REP), max (HIS-tagged α4β1 integrin) | Relative Potency (REP), min (HIS-tagged α4β1 integrin) | Relative Potency (REP), average [1] | Relative Potency (REP), max [1] | Relative Potency (REP), min [1] | Binder |
| --- | --- | --- | --- | --- | --- | --- | --- | --- | --- |
| 0.81 relative to reference standard | 0.857 relative to reference standard | 0.738 relative to reference standard | 0.829 relative to reference standard | 0.842 relative to reference standard | 0.805 relative to reference standard | 0.769 relative to interim reference standard | 0.847 relative to interim reference standard | 0.723 relative to interim reference standard | natalizumab biosimilar antibody produced by CHO DG44 Clone 1 (antibody, human IgG4, kappa, V domains shown, Tested product from the clone selection step; full-length IgG4) VH: QVQLVQSGAEVKKPGASVKVSCKASGFNIKDTYIHWVRQAPGQRLEWMGRIDPANGYTKYDPKFQGRVTITADTSASTAYMELSSLRSEDTAVYYCAREGYYGNYGVYAMDYWGQGTLVTVSS VL: DIQMTQSPSSLSASVGDRVTITCKTSQDINKYMAWYQQTPGKAPRLLIHYTSALQPGIPSRFSGSGSGRDYTFTISSLQPEDIATYYCLQYDNLWTFGQGTKVEIKR |
| 0.998 relative to reference standard | 1.08 relative to reference standard | 0.922 relative to reference standard | 1.02 relative to reference standard | 1.15 relative to reference standard | 0.935 relative to reference standard |  |  |  | natalizumab reference product (9 batches) (antibody, human IgG4, kappa, V domains shown) VH: QVQLVQSGAEVKKPGASVKVSCKASGFNIKDTYIHWVRQAPGQRLEWMGRIDPANGYTKYDPKFQGRVTITADTSASTAYMELSSLRSEDTAVYYCAREGYYGNYGVYAMDYWGQGTLVTVSS VL: DIQMTQSPSSLSASVGDRVTITCKTSQDINKYMAWYQQTPGKAPRLLIHYTSALQPGIPSRFSGSGSGRDYTFTISSLQPEDIATYYCLQYDNLWTFGQGTKVEIKR |
| 0.831 relative to reference standard | 0.858 relative to reference standard | 0.79 relative to reference standard | 0.903 relative to reference standard | 0.93 relative to reference standard | 0.85 relative to reference standard | 0.679 relative to interim reference standard | 0.732 relative to interim reference standard | 0.611 relative to interim reference standard | natalizumab biosimilar antibody produced by CHO DG44 Clone 2 (antibody, human IgG4, kappa, V domains shown, Tested product from the clone selection step; full-length IgG4) VH: QVQLVQSGAEVKKPGASVKVSCKASGFNIKDTYIHWVRQAPGQRLEWMGRIDPANGYTKYDPKFQGRVTITADTSASTAYMELSSLRSEDTAVYYCAREGYYGNYGVYAMDYWGQGTLVTVSS VL: DIQMTQSPSSLSASVGDRVTITCKTSQDINKYMAWYQQTPGKAPRLLIHYTSALQPGIPSRFSGSGSGRDYTFTISSLQPEDIATYYCLQYDNLWTFGQGTKVEIKR |
